{
  "source": "patent US9274110B2",
  "about": "“Diagnosis method of active tuberculosis” (priority 2011, dated 2016)",
  "molecules": {"B1": {"name": "LipY: triacylglycerol hydrolase LipY (Rv3097c) of Mycobacterium tuberculosis, SEQ ID NO: 3 (protein, listed as Mycobacterium tuberculosis)", "chain": "PEVVFIHGSVVSYVVALPEVMSAAATDVASIGSVVATASQGVAGATTTVLAAAEDEVSAAIAALFSGHGQDYQALSAQLAVFHERFVQALTGAAKGYAAAELANASLLQSEFASGIGNGFATIHQEIQRAPTALAAGFTQVPPFAAAQAGIFTGTPSGAAGFDIASLWPVKPLLSLSALETHFAIPNNPLLALIASDIPPLSWFLGNSPPPLLNSLLGQTVQYTTYDGMSVVQITPAHPTGEYVVAIHGGAFILPPSIFHWLNYSVTAYQTGATVQVPIYPLVQEGGTAGTVVPAMAGLISTQIAQHGVSNVSVVGDSAGGNLALAAAQYMVSQGNPVPSSMVLLSPWLDVGTWQISQAWAGNLAVNDPLVSPLYGSLNGLPPTYVYSGSLDPLAQQAVVLEHTAVVQGAPFSFVLAPWQIHDWILLTPWGLLSWPQINQQLGIAASDIHHHHHH"}},
  "conditions": "cell wall of M. smegmatis overexpressing LipY vs control mycobacteria; 0.5 mM substrate, 40 min, 35° C.",
  "data": [
    {"molecule": "B1", "values": [
      {"measurement": "Lipase activity: degradation of para-Nitrophenyl stearate, absorbance at 405 nm", "result": "demonstrating the lipase activity"}
    ]}
  ]
}
